# The supplement of paper PMC12764529
# ± gives the half width of the 95% confidence interval.
# Assay: folding stability dG unfold from trypsin proteolysis; higher = more stable
# Procedure, shortened: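 Mini-proteins designed to be under 80 residues and free of cysteine were carried in a PA-tagged cDNA display construct and digested with trypsin and with chymotrypsin. Each protease was applied at 11 threefold-diluted concentrations, alongside a no-protease condition, before sequencing. K50 came from Bayesian fitting of the sequencing counts, and unfolding free energy was obtained by comparing it with a sequence-predicted unfolded-state K50 and a shared folded-state K50, for each protease separately or for both together. Designs were retained only if their AlphaFold2 dimer inter-PAE exceeded 15.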
row,Sequence,folding stability dG unfold [kcal/mol]
1,SAGGSAGGSPANIKITTTLDTETGYLTIVAYNPATGKVTVLTAKIYGNVPHIDGLEALFGALGSAGGSAGGS [r20_131_TrMRF],2.07 ± 0.086
2,SAGGSAGGSAGGMPTYEVTLEPDPTGGDVYTVTVTFPDGSTVTRNATPAELKAEGLTVKVSAGGSAGGSAGG [r7_14_JUSTAS],1.09 ± 0.039
3,SAGGSAGGGMSMEELKTVDYPLVVTVPLPDGSTVTVSAKVPAEDLDKAIPEVEERAKALAEEGASAGGSAGG [r6_903_JUSTAS],-0.194 ± 0.053
4,SAGKKKIKIKLENGETKTLEIKPGETVEITFPNGLKATITKVKDGKIEIKVKEVYVKDKNGKWKKLKDLSAG [r5_417_TrROS_Hall],1.72 ± 0.066
5,EAFEKAIEAAIEAAEKGEKETEITLPLPDGKAIRVHATVEVKDGKPVRVDIHVELYGPNNVPYPFTLTITAS [r1_254_TrMRF],2.37 ± 0.13
6,SAGGEEVVEEPPPPEVEVIEIRDAETDRTVTLVYNKDTGKLFLFDEDTGLVYEFDVDGRLVRVERLPPSAGG [r13_101_TrROS_Hall],2.95 ± 0.26
7,SAGGSAGGSAGGSMVKVEKNGEGVVTTTTKYFFYPSTGKWSSETITTTKKVPKDEPFPLSAGGSAGGSAGGS [r4_215_JUSTAS],-0.159 ± 0.14
8,SAGGSAGGSAMKTSSGTVSFPDSTVKLSYENFGDGSVKKSVVEVVSRPPPPPVPPSNPHYLQSAGGSAGGSA [r18_176_JUSTAS],0.667 ± 0.12
9,SAGGSASSMPVTLTLLLTRPDGTPLTLPFEAETLEEAIERGTALAQELIAELGDPNMKITGLEVVPSAGGSA [r15_698_JUSTAS],0.904 ± 0.067
10,SAGSAEELKEKIREELRERLAKELGYPNIEIKKVEVLKYDPETGTITVKVELKLPDGKELTLTITVPVKSAG [r5_20_JUSTAS],4.27 ± 0.34
11,SAGGMERKTLTVNVPASVPASELLSLLEGYGDVLLVLGNGEVLHIKRDDAPGLEGLPLSDDDVLELYYSAGG [r13_399_TrMRF],-0.696 ± 0.14
12,SAGGSAGGSAGKVVLYLPGDGTAWVLKVGDGEAVLEAEPEKVEELLEKIPGTEAVPVPGLSAGGSAGGSAGG [r11_57_TrMRF],0.652 ± 0.026
13,SAMKYTITVKGDIESVRNFLLDKLDFDIEVSSTPDGTTVITITMDEEKVSELKELLKAHPNFPTTVNKESAG [r14_521_JUSTAS],2.75 ± 0.086
14,SAGVVVRPGEPVPFYVVRVETELRTRPRPDGSEVTTVETRVEVRPYTVTVGPVPVVEVPPDATDPADAASAG [r5_770_TrMRF],2.09 ± 0.2
15,KIEIVEIKKENGKITIKVKNPIPNAKLIIYLFNPKGEIVSAKTHPGPEVELEIEVPENESFSVLVKLFPPKS [r1_382_TrMRF],3.35 ± 0.12
16,SAGGSAGGSAGGKPKLTLTLTLKRTVKNKNGKTTEKTLTLTLTFDSKEEAENALKELGFSAGGSAGGSAGGS [r10_1062_TrROS_Hall],2.18 ± 0.033

row,Sequence,folding stability dG unfold [kcal/mol]
1,SAGGMVEITATVGSPDPSLTDEEIAERILKELGLDPEIVEVTFLERRLVPDAAGRVRVVVEMKFLVPEKSAG [r5_528_JUSTAS],4.77 ± 0.21
2,SAGGSMVVVVKLKDGKKIELSVEELKKLAEELGLEPEEEDKEERLERIAKALAEKLGLEVEKVEVLSAGGSA [r2_83_TrROS_Hall],4.09 ± 0.29
3,SAGGSAAIPLEFELPNGERVTVYYDPETGLFTVEVEVRFGNEKGEPPEVRFRFEVDSLVDLLDFLASAGGSA [r15_31_TrMRF],2.51 ± 0.13
4,SAGGAPVTTFSLTLENPETGLNWTSTSATYDPATGTLTLNLKRPQSGESLTLTTPVTVVSPEEPELASAGGS [r8_193_JUSTAS],0.699 ± 0.052
5,SAGGSAGGSAGKVTLTIPFTNEDGTKYIAEFTFDELEVEEDVEIKIVSLGENFDLVLKPESAGGSAGGSAGG [r11_733_TrMRF],1.47 ± 0.069
6,SAEKTLTIPITLENGATLTITVYEDRIEATLEVDGLTGTGYTLPDGTVVLNLRAPGNKPIASPVFTLDLSAG [r14_213_TrMRF],1.73 ± 0.058
7,SAGGSAGGSMKITKSPSGYYTVTINLPNGTTVEIKVSTSDPNATDEQIIEIAKPKAEEILKKSSAGGSAGGS [r12_642_JUSTAS],1.16 ± 0.054
8,SAGGSAMLVVADDPEVVRELVEPLFPDGEPVLVVGATEEEAAKLVEELKKKGLPFKVVVVRRPDRPSAGGSA [r15_567_TrMRF],0.932 ± 0.048
9,SAGPWITIPFKVKSLEEARNIIREIAQTFGLPMKVEDIQVTEDQLEKNREPGDPIRITVRYPNGREIEISAG [r5_503_TrROS],1.64 ± 0.065
10,SAGGSAGGSAGMLPLEELLKKNPKPIKVLVKVGDTEYLVEVTPGEKKYTIKVKPLKKSKPSAGGSAGGSAGG [r11_549_TrMRF],1.08 ± 0.026
11,SAGGSAKLTIELVISDMSPEDAEIAAENIRIELIKKGIPEEEIENVDIKVIVAPVYLDEDNNLILGSAGGSA [r15_684_TrMRF],0.533 ± 0.019
12,SMTVEVELTVTVEVVDPKTGKKKTVTVKVTVKVRVTEVKTKDGKTEVKVELSEEALEEARRLAEELAKKKSA [r9_698_TrROS_Hall],3.13 ± 0.13
13,SAGGSATIEEIANMPAEEIAQEHGMEVKDVDIERVPNGTITVEVEYEPPDGKKHKHTFQIKIDEGQSAGGSA [r15_805_TrROS],0.089 ± 0.1
14,SGSPDELEVVESEETVNIPPEELEAKYGIKVPENSTVVIKTKTLKPPSGNDIVEPEIKIYDPVTNEWIELSA [r9_349_JUSTAS],-0.537 ± 0.13
15,SAGGTSPVTIPVTFDDLPPDAVDEAKARAEELAEELRAQGHEVLSVTIEIEPGRVTVTLTVTFPGGAPLSAG [r5_515_JUSTAS],1.93 ± 0.081
